Among the data in paper PMC11670933 are Log2FC NICD2RA-vs-NICD2 (log2 fold change) and percent of the NOTCH2 recovered (against NICD2-TurboID) values, retold here.

The assay has as its target truncated human NOTCH2^ΔERA-TurboID (human). Nature of the assay: proximity labelling; TurboID fusions stably expressed in HT-29; 500 uM biotin for one hour; streptavidin beads; label-free quantitative mass spectrometry (DIA, Q-Exactive HF X), TurboID alone as control.

As to “endogenous human NOTCH2 (NICD2) (natural protein)”, the Log2FC NICD2RA-vs-NICD2 (log2 fold change) was -2.03 and the percent of the NOTCH2 recovered (against NICD2-TurboID) stood at 13%.
